# Assay results published in patent US20190309059A1 (SHANGHAI PHARMAEXPLORER, published 2019).
# T1: mouse IL-13 (purchased from sino biological) (mouse, UniProt P20109 19-131)
# T1 chain: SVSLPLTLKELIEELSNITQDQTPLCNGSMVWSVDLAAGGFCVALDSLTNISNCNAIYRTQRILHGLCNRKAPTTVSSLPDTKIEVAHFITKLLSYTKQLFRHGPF
# What was measured:
# [1] = molecular target: mouse IL-13 (purchased from sino biological) (mouse) (UniProt P20109); assay: ELISA, mouse IL-13; antibody at 0.11 nM
# [2] = molecular target: mouse IL-13 (purchased from sino biological) (mouse) (UniProt P20109); assay: ELISA, mouse IL-13; antibody at 0.53 nM
# [3] = molecular target: mouse IL-13 (purchased from sino biological) (mouse) (UniProt P20109); assay: ELISA, mouse IL-13; antibody at 2.67 nM
# [4] = molecular target: mouse IL-13 (purchased from sino biological) (mouse) (UniProt P20109); assay: ELISA, mouse IL-13; antibody at 0.000 nM
# [5] = molecular target: mouse IL-13 (purchased from sino biological) (mouse) (UniProt P20109); assay: ELISA, mouse IL-13; antibody at 0.001 nM
# [6] = molecular target: mouse IL-13 (purchased from sino biological) (mouse) (UniProt P20109); assay: ELISA, mouse IL-13; antibody at 0.004 nM
# [7] = molecular target: mouse IL-13 (purchased from sino biological) (mouse) (UniProt P20109); assay: ELISA, mouse IL-13; antibody at 0.021 nM
# [8] = molecular target: cynomolgus IL-13 (purchased from sino biological) (cynomolgus) (UniProt Q0PW92); assay: ELISA, cynomolgus IL-13; antibody at 2.67 nM
# [9] = molecular target: cynomolgus IL-13 (purchased from sino biological) (cynomolgus) (UniProt Q0PW92); assay: ELISA, cynomolgus IL-13; antibody at 0.53 nM
# [10] = molecular target: cynomolgus IL-13 (purchased from sino biological) (cynomolgus) (UniProt Q0PW92); assay: ELISA, cynomolgus IL-13; antibody at 0.004 nM
# [11] = molecular target: cynomolgus IL-13 (purchased from sino biological) (cynomolgus) (UniProt Q0PW92); assay: ELISA, cynomolgus IL-13; antibody at 0.021 nM
# [12] = molecular target: T1, mouse IL-13 (purchased from sino …); assay: ELISA, mouse IL-13; antibody at 0.004 nM
# [13] = molecular target: cynomolgus IL-13 (purchased from sino biological) (cynomolgus) (UniProt Q0PW92); assay: ELISA: cynomolgus IL-13 on the plate, antibody titrated, HRP secondary antibody, OD450
# Chain of cynomolgus IL-13 (purchased from sino biological) (cynomolgus) (Q0PW92 entry or part of it): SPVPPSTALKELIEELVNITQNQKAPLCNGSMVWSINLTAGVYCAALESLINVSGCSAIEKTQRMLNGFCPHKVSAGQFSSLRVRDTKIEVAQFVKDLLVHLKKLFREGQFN
molecule,measurement,setting,value
IgG control (mouse IgG) (antibody),OD450 nm,[1],0.08
same,OD450 nm,[2],0.08
same,OD450 nm,[3],0.08
same,OD450 nm,[4],0.1
same,OD450 nm,[5],0.07
same,OD450 nm,[6],0.07
same,OD450 nm,[7],0.07
same,OD450 nm,[8],0.1
same,OD450 nm,[9],0.08
same,OD450 nm,[10],0.061
same,OD450 nm,[11],0.068
"28A2E11 (lead antibody, mouse hybridoma) (antibody, V domains shown, Mouse monoclonal antibody purified from hybridoma supernatant on Protein G) VH: EVQLQQSGAELVKPGASVKLSCTASGFNIKDYYMHWVKQRTEQGLEWIGRIDPEDGETKYAPKFHDKATLTADTSSNTAYLQFSSLASEDTAVYYCTRYDYYGPFAYWGQGTLVTVSA VL: QAVVTQESVLTTSPGETVTLTCRSSTGAVTTSNYANWVQEKPDHLFTGLIGGTNNRAPGVPARFSGSLIGDKAALTITGAQTEDEAIYFCALWYINHFIFGSGTKVTVL",OD450 nm,[12],0.07
"29D9H8 (lead antibody, mouse hybridoma) (antibody, V domains shown, Mouse monoclonal antibody purified from hybridoma supernatant on Protein G) VH: QVQLQQSGAELVRPGASVTLSCKASGYTFTDYEMHWVKQTPVHGLEWIGGIDPETGGTASNQKFKGKAILTADKSSSTAYMELRSLTSEDSAVYYCTSGDYFGGGPFAYWGQGTLVTVSA VL: DIKMTQSPSSMYASLGERVTITCKASQDINSYLSWFQQKPGKSPKTLIYRANRLVDGVPSRFSGSGSGQDYSLTISSLDYEDMGIYYCLQYDEFPYTFGGGTKLEIK",OD450 nm,[12],0.07
same,EC50 (read off the curve),[13],0.1 nM
"c29D9H8 (mouse-human chimeric IL-13 antibody) (antibody, V domains shown) VH: QVQLQQSGAELVRPGASVTLSCKASGYTFTDYEMHWVKQTPVHGLEWIGGIDPETGGTASNQKFKGKAILTADKSSSTAYMELRSLTSEDSAVYYCTSGDYFGGGPFAYWGQGTLVTVSA VL: DIKMTQSPSSMYASLGERVTITCKASQDINSYLSWFQQKPGKSPKTLIYRANRLVDGVPSRFSGSGSGQDYSLTISSLDYEDMGIYYCLQYDEFPYTFGGGTKLEIK",EC50 (read off the curve),[13],0.2 nM
